Source: patent US20160031968A1 (Bayer, published 2016)

T1: Var97, a variant of D519VE665V-FVIII with the additional amino acid substitutions I371P, V374F, V559L, R562W and Q565E
T1 sequence: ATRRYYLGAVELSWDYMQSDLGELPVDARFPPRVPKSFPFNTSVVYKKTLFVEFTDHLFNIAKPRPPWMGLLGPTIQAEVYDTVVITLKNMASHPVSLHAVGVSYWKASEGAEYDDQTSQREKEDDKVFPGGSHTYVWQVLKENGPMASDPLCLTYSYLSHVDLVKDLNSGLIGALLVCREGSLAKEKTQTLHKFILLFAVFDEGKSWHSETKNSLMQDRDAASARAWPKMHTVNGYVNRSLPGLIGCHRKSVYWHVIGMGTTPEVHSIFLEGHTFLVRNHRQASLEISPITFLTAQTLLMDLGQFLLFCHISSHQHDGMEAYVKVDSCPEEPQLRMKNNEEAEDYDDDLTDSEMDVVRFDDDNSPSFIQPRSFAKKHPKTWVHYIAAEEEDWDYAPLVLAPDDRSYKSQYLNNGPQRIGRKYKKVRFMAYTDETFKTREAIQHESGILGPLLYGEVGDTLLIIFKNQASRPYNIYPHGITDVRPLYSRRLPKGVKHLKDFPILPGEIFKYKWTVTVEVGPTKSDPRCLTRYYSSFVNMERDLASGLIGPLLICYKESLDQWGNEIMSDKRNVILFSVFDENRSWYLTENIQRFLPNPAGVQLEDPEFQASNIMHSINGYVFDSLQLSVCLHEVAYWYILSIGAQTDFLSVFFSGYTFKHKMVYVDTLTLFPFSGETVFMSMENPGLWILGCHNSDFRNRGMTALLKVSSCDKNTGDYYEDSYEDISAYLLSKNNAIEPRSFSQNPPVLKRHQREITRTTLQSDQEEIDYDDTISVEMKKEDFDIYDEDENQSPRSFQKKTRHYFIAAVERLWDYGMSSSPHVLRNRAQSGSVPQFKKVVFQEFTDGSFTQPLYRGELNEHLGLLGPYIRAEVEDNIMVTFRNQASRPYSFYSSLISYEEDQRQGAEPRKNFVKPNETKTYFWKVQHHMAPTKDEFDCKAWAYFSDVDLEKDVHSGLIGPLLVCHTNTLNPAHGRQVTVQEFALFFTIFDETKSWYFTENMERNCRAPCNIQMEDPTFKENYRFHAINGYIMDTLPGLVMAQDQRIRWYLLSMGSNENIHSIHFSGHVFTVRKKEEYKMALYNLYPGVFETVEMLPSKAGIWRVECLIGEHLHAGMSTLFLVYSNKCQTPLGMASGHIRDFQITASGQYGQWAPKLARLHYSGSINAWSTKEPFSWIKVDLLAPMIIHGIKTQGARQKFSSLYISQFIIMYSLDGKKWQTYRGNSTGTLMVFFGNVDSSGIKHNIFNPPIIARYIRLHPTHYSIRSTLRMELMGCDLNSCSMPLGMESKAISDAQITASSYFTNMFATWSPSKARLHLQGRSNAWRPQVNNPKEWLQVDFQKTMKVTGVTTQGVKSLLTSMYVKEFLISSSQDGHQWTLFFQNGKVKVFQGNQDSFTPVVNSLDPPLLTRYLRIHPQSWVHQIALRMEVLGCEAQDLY

T2: Var97-R336I
T2 sequence: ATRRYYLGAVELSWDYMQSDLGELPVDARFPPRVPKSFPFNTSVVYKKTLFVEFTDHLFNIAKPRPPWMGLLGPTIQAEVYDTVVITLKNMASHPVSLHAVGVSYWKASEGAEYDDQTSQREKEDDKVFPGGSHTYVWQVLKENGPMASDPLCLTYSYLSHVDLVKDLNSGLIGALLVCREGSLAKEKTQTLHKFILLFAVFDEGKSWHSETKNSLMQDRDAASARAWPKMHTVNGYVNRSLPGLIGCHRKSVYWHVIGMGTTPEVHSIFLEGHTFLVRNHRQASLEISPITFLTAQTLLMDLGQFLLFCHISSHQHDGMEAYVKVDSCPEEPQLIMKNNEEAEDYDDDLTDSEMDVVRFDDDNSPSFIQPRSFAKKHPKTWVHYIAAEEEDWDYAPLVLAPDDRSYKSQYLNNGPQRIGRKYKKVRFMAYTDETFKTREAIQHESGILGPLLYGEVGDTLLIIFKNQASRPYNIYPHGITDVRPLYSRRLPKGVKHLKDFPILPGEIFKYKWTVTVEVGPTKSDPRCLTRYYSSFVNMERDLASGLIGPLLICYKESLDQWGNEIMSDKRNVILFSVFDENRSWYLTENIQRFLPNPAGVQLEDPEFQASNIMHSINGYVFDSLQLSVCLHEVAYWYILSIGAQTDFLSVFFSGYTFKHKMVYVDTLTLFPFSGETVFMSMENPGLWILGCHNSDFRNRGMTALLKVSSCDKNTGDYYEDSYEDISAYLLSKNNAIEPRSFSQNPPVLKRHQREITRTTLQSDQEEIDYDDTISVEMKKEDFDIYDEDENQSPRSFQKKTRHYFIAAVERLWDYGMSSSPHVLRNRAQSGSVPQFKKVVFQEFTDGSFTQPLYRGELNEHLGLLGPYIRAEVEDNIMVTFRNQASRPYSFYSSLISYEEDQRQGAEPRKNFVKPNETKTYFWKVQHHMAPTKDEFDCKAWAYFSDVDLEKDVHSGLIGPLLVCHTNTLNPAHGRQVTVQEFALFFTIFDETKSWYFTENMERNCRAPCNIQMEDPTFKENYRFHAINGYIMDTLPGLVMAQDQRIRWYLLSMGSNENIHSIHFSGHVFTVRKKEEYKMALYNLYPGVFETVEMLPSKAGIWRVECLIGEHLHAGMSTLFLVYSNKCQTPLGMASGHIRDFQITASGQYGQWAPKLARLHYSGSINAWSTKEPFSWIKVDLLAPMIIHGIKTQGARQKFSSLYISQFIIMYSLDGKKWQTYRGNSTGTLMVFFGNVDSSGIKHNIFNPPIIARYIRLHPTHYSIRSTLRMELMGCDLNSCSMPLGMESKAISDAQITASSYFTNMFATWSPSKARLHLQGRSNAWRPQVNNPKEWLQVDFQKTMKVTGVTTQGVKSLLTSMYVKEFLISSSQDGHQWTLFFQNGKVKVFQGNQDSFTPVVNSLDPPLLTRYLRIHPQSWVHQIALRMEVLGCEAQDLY


Assays:
[1] = test system: T1, Var97, a variant of D519VE665V-FVIII with the additional amino acid substitutions I371P, V374F, V559L, R562W and Q565E
Var97-R336I = test system: T2, Var97-R336I
[2] = target: T3, Factor IXa (activated Coagulation Factor IX) (human, UniProt P00740 47-191; P00740 227-461, limits assumed); experiment: FXase kinetic assay: thrombin-activated FVIII fixed at 10 pM, FIXa varied 0-10 nM, FXa generation read with S-2765 (functional affinity)
T3 construct: also called FIXa
Protocol: The function of the Var97 variant in its physiologic enzyme complex was examined using FXase kinetic assays. These FXase kinetic assays were performed in 10 mM HEPES pH 7.4, 150 mM NaCl, 5 mM CaCl2, 0.01% Tween 20, 0.01% BSA and 10 μM PL (40:40:20, v/v/v PS:PC:PE). In these FXase kinetic assays, purified FVIIIa proteins were generated by incubation with 20 nM thrombin. The FVIII level was held fixed at 10 pM and reacted with varying concentrations of FIXa (0-10 nM), or the FIXa level was held fixed at (100 pM) and the level of thrombin activated FVIIIa was varied (0-10 nM). FX (150 nM) was added to either types of reactions, and after 1 min., the FXase reactions were stopped by addition to EDTA. The amount of FXa generated in these reactions were measured using the S-2765 chromogenic substrate. FXa generation was then extrapolated from a standard curve relating FXa level to rates of chromogenic substrate cleavage. The data was fit to a standard Michaelis-Menten equation to derive kinetic constants.

T3 sequence (P00740 47-191 limits assumed, form in doubt, chain 1 of 2): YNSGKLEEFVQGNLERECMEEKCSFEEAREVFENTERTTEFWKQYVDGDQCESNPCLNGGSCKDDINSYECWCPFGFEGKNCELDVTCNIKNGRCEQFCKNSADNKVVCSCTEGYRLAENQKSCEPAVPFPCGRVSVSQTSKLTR
T3 sequence (P00740 227-461 limits assumed, form in doubt, chain 2 of 2): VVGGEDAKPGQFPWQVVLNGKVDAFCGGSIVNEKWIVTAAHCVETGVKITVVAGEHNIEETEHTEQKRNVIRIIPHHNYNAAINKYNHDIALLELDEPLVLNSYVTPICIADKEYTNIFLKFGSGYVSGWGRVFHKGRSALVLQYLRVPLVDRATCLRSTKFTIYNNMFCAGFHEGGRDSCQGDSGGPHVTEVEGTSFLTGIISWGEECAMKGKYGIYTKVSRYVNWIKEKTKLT

Row | Molecule | proteolytic cleavage of FVIII by excess FIXa in a FXase reaction (SDS-PAGE, Coomassie Blue) [1] | proteolytic cleavage in the FIXa digestion assay (SDS-PAGE) (Var97-R336I) | fold binding affinity for FIXa over FVIII-BDD [2] [fold]
1 | Factor IXa (activated Coagulation Factor IX) | the Var97 Factor VIII variant shows enhanced proteolytic cleavage by FIXa relative to one or both of BDD and D519VE665V variant FVIII | proteolytic cleavage of Var97-R336I was markedly reduced as compared to Var97 | 
2 | Var97, a variant of D519VE665V-FVIII with the additional amino acid substitutions I371P, V374F, V559L, R562W and Q565E (other, Purified from HKB11 cells; also called Var97 variant; Var97 Factor VIII variant) ATRRYYLGAVELSWDYMQSDLGELPVDARFPPRVPKSFPFNTSVVYKKTLFVEFTDHLFNIAKPRPPWMGLLGPTIQAEVYDTVVITLKNMASHPVSLHAVGVSYWKASEGAEYDDQTSQREKEDDKVFPGGSHTYVWQVLKENGPMASDPLCLTYSYLSHVDLVKDLNSGLIGALLVCREGSLAKEKTQTLHKFILLFAVFDEGKSWHSETKNSLMQDRDAASARAWPKMHTVNGYVNRSLPGLIGCHRKSVYWHVIGMGTTPEVHSIFLEGHTFLVRNHRQASLEISPITFLTAQTLLMDLGQFLLFCHISSHQHDGMEAYVKVDSCPEEPQLRMKNNEEAEDYDDDLTDSEMDVVRFDDDNSPSFIQPRSFAKKHPKTWVHYIAAEEEDWDYAPLVLAPDDRSYKSQYLNNGPQRIGRKYKKVRFMAYTDETFKTREAIQHESGILGPLLYGEVGDTLLIIFKNQASRPYNIYPHGITDVRPLYSRRLPKGVKHLKDFPILPGEIFKYKWTVTVEVGPTKSDPRCLTRYYSSFVNMERDLASGLIGPLLICYKESLDQWGNEIMSDKRNVILFSVFDENRSWYLTENIQRFLPNPAGVQLEDPEFQASNIMHSINGYVFDSLQLSVCLHEVAYWYILSIGAQTDFLSVFFSGYTFKHKMVYVDTLTLFPFSGETVFMSMENPGLWILGCHNSDFRNRGMTALLKVSSCDKNTGDYYEDSYEDISAYLLSKNNAIEPRSFSQNPPVLKRHQREITRTTLQSDQEEIDYDDTISVEMKKEDFDIYDEDENQSPRSFQKKTRHYFIAAVERLWDYGMSSSPHVLRNRAQSGSVPQFKKVVFQEFTDGSFTQPLYRGELNEHLGLLGPYIRAEVEDNIMVTFRNQASRPYSFYSSLISYEEDQRQGAEPRKNFVKPNETKTYFWKVQHHMAPTKDEFDCKAWAYFSDVDLEKDVHSGLIGPLLVCHTNTLNPAHGRQVTVQEFALFFTIFDETKSWYFTENMERNCRAPCNIQMEDPTFKENYRFHAINGYIMDTLPGLVMAQDQRIRWYLLSMGSNENIHSIHFSGHVFTVRKKEEYKMALYNLYPGVFETVEMLPSKAGIWRVECLIGEHLHAGMSTLFLVYSNKCQTPLGMASGHIRDFQITASGQYGQWAPKLARLHYSGSINAWSTKEPFSWIKVDLLAPMIIHGIKTQGARQKFSSLYISQFIIMYSLDGKKWQTYRGNSTGTLMVFFGNVDSSGIKHNIFNPPIIARYIRLHPTHYSIRSTLRMELMGCDLNSCSMPLGMESKAISDAQITASSYFTNMFATWSPSKARLHLQGRSNAWRPQVNNPKEWLQVDFQKTMKVTGVTTQGVKSLLTSMYVKEFLISSSQDGHQWTLFFQNGKVKVFQGNQDSFTPVVNSLDPPLLTRYLRIHPQSWVHQIALRMEVLGCEAQDLY |  |  | ≥ 4
